Here are results for four proteins from ChEMBL document CHEMBL1250451, “Mechanistic insights into a Ca2+-dependent family of alpha-mannosidases in a human gut symbiont” (Nat Chem Biol, 2010).

What all share (format): protein assay
Substrate in data set [1]: O=[N+]([O-])c1ccc(O[C@H]2O[C@H](CO)[C@@H](O)[C@H](O)[C@@H]2O)cc1
In words: (§1) Ratio of Kcat to Km for Bacteroides thetaiotaomicron GH92 alpha-mannosidase 2199 D648A mutant assessed as as mannose release after 16 hrs by HPLC relative to wild type enzyme.

Substrate in data set [2]: OC[C@H]1O[C@H](O[C@H]2[C@@H](O)[C@H](O)[C@@H](CO)O[C@@H]2O)[C@@H](O)[C@@H](O)[C@@H]1O
Described as §1.

Substrate in data set [3]: O=[N+]([O-])c1ccc(O[C@H]2O[C@H](CO)[C@@H](O)[C@H](O)[C@@H]2O)cc1
In words: (§2) Activity of Bacteroides thetaiotaomicron GH92 alpha-mannosidase 2199 D648A mutant assessed as as mannose release after 16 hrs by HPLC relative to wild type enzyme.

Substrate in data set [4]: OC[C@H]1O[C@H](O[C@H]2[C@@H](O)[C@H](O)[C@@H](CO)O[C@@H]2O)[C@@H](O)[C@@H](O)[C@@H]1O
The data set is described as §2.

Substrate in data set [5]: O=[N+]([O-])c1ccc(O[C@H]2O[C@H](CO)[C@@H](O)[C@H](O)[C@@H]2O)cc1
In words: (§3) Ratio of Kcat to Km for Bacteroides thetaiotaomicron GH92 alpha-mannosidase 2199 D648N mutant assessed as as mannose release after 16 hrs by HPLC relative to wild type enzyme.

Substrate in data set [6]: OC[C@H]1O[C@H](O[C@H]2[C@@H](O)[C@H](O)[C@@H](CO)O[C@@H]2O)[C@@H](O)[C@@H](O)[C@@H]1O
The data set is described as §3.

Substrate in data set [7]: O=[N+]([O-])c1ccc(O[C@H]2O[C@H](CO)[C@@H](O)[C@H](O)[C@@H]2O)cc1
In words: (§4) Activity of Bacteroides thetaiotaomicron GH92 alpha-mannosidase 2199 D648N mutant assessed as as mannose release after 16 hrs by HPLC relative to wild type enzyme.

Substrate in data set [8]: OC[C@H]1O[C@H](O[C@H]2[C@@H](O)[C@H](O)[C@@H](CO)O[C@@H]2O)[C@@H](O)[C@@H](O)[C@@H]1O
The description is as §4.

Substrate in data set [9]: O=[N+]([O-])c1ccc(O[C@H]2O[C@H](CO)[C@@H](O)[C@H](O)[C@@H]2O)cc1
Briefly: (§5) Ratio of Kcat to Km for Bacteroides thetaiotaomicron GH92 alpha-mannosidase GH92 alpha-mannosidase 3990 assessed as mannose release after 16 hrs by HPLC.

Substrate in data set [10]: OC[C@H]1O[C@H](O[C@H]2[C@@H](O)[C@H](O)[C@@H](CO)O[C@@H]2O)[C@@H](O)[C@@H](O)[C@@H]1O
Described as §5.

Substrate in data set [11]: O=[N+]([O-])c1ccc(O[C@H]2O[C@H](CO)[C@@H](O)[C@H](O)[C@@H]2O)c([N+](=O)[O-])c1
The description is as §5.

Substrate in data set [12]: O=[N+]([O-])c1ccc(O[C@H]2O[C@H](CO)[C@@H](O)[C@H](O)[C@@H]2O)cc1
Briefly: (§6) Activity of Bacteroides thetaiotaomicron GH92 alpha-mannosidase GH92 alpha-mannosidase 3990 assessed as mannose release after 16 hrs by HPLC.

Substrate in data set [13]: OC[C@H]1O[C@H](O[C@H]2[C@@H](O)[C@H](O)[C@@H](CO)O[C@@H]2O)[C@@H](O)[C@@H](O)[C@@H]1O
The data set is described as §6.

Substrate in data set [14]: O=[N+]([O-])c1ccc(O[C@H]2O[C@H](CO)[C@@H](O)[C@H](O)[C@@H]2O)cc1
Briefly: (§7) Activity of Bacteroides thetaiotaomicron GH92 alpha-mannosidase 3990 D642A mutant assessed as as mannose release after 16 hrs by HPLC relative to wild type enzyme.

Substrate in data set [15]: OC[C@H]1O[C@H](O[C@H]2[C@@H](O)[C@H](O)[C@@H](CO)O[C@@H]2O)[C@@H](O)[C@@H](O)[C@@H]1O
The description is as §7.

Substrate in data set [16]: O=[N+]([O-])c1ccc(O[C@H]2O[C@H](CO)[C@@H](O)[C@H](O)[C@@H]2O)cc1
In words: (§8) Ratio of Kcat to Km for Bacteroides thetaiotaomicron GH92 alpha-mannosidase 3990 D642A mutant assessed as as mannose release after 16 hrs by HPLC relative to wild type enzyme.

Substrate in data set [17]: OC[C@H]1O[C@H](O[C@H]2[C@@H](O)[C@H](O)[C@@H](CO)O[C@@H]2O)[C@@H](O)[C@@H](O)[C@@H]1O
Described as §8.

Substrate in data set [18]: O=[N+]([O-])c1ccc(O[C@H]2O[C@H](CO)[C@@H](O)[C@H](O)[C@@H]2O)c([N+](=O)[O-])c1
The description is as §8.

Positions count from the first letter of the chain named. Names and notes keep the numbering of the source.

B1: Alpha-1,2-mannosidase (BT_2199) (Bacteroides thetaiotaomicron), Q8A5N9 D648A (protein)
chain: MVTRLFFLSICFPFLLTSCQQSKKTVEFVDYVNPLMGTESTFAFSHGNTYPAVAVPWGMNFWSPQTGENGSGWMYTYTDSLMRGFRQTHQPSPWINDYGTFSIMPLAGELKMSHKERLVPFSHQQEKATPYNYSVTFNNGLQTSLSATSRGAVFEVSFPEKEDQYVVVDAYNGGSSITIEPEKRLVKGATRYNNGGVPDNFANYFMMEFSHPVIEYGTYNGDTLLHHQTDVAADYTCAYLKFDVPAGEKLTIRTASSFISPEQAAINFNREVADADVQLISGKAREQWNNYLGRVEAEGGTDEQLRTFYSCLYRTLLFPREFYEFDSQGNPVYYSPYDGNVHDGYMYTDNGFWDTFRAVHPLFTLLYPEVSERVTQSIINAYNESGFMPEWASPGHRGCMIGNNSVSLLVDAWMKGIQTVDAEKALEAMIHQTQARHAEIASVGRDGFEYYDKLGYVPYPEVPEATAKTLEYAYADWCIARFAESLGKQDIADQYYQKAPNYRNLYYPEHGFMWTKDAKGNWRDRFDATEWGGPFTEGSSWHWTWSVFHDPEGLSELMGGHEPMIARLDSMFVAPNTYNYGTYGFVIHEIAEMVALNMGQYAHGNQPVQHAIYLYDYIGQPWKTQYHLRNVMDKLYNSGSKGYCGDEANGQTSAWYVFSAMGFYPVCPGMPEYAIGSPLFKKVTLHLPEGKNFVVSAADNAADRPYIRKALLNGQEFTRNYLTHDELKQGGELNLSMDSVPNQQRGTQPADFPYSYSK
B1: the kcat/Km result in data set [1] was “Not Active”; in data set [2] it was 0.167 M⁻¹ s⁻¹. Besides, the values for the Km entry in data set [3] and in data set [4] were “Not Active” and 2720 µM, respectively. In addition, the results for the kcat result in [3] and in data set [4] were “Not Active” and 0.000433 s⁻¹, respectively.

B2: Alpha-1,2-mannosidase (BT_2199) (Bacteroides thetaiotaomicron), Q8A5N9 D648N (protein)
chain: B1 chain with A648N
For B2, the kcat/Km result was “Not Active” in data set [5] and 0.383 M⁻¹ s⁻¹ in data set [6]. The Km result in [7] was “Not Active”; in data set [8] it was 1270 µM. Moreover, the kcat entry is “Not Active” in data set [7] and 0.000483 s⁻¹ in data set [8].

B3: Alpha-1,2-mannosidase (BT_3990) (Bacteroides thetaiotaomicron), Q8A0N1 (protein)
chain: MKRLLLIACILNCTLLSQAKDWTQYVNPLMGSQSTFELSTGNTYPAIARPWGMNFWTPQTGKMGDGWQYTYTANKIRGFKQTHQPSPWINDYGQFSIMPIVGQPVFDEEKRASWFAHKGEVATPYYYKVYLAEHDIVTEMTPTERAVLFRFTFPENDHSYVVVDAFDKGSYIKIIPEENKIIGYTTRNSGGVPENFKNYFIIEFDKPFTYKATVENGNLQENVAEQTTDHAGAIIGFKTRKGEQVNARIASSFISFEQAAANMNELGKDNIEQLAQKGKDAWNQVLGKIEVEGGNLDQYRTFYSCLYRSLLFPRKFYELDANGQPIHYSPYNGQVLPGYMFTDTGFWDTFRCLFPLLNLMYPSVNKEMQEGLINTYLESGFFPEWASPGHRGCMVGNNSASILVDAYMKGVKVDDIKTLYEGLIHGTENVHPEVSSTGRLGYEYYNKLGYVPYDVKINENAARTLEYAYDDWCIYRLAKELKRPKKEISLFAKRAMNYKNLFDKESKLMRGRNEDGTFQSPFSPLKWGDAFTEGNSWHYTWSVFHDPQGLIDLMGGKEMFVTMMDSVFAVPPIFDDSYYGQVIHEIREMTVMNMGNYAHGNQPIQHMIYLYDYAGQPWKAQYWLRQVMDRMYTPGPDGYCGDEDNGQTSAWYVFSALGFYPVCPGTDEYVMGTPLFKKATLHFENGNSLVIDAPNNSTENFYIDSMSFNGADHTKNYLRHEDLFKGGTIKVDMSNRPNLNRGTKEEDMPYSFSKE
In the case of B3, the kcat/Km in data set [9] came out at 21.7 M⁻¹ s⁻¹; in data set [10], 113000 M⁻¹ s⁻¹; in [11], 16.7 M⁻¹ s⁻¹. The Michaelis constant (Km) in data set [12] was determined as 4200 µM; in data set [13], 760 µM. Also, the kcat in [12] is 0.0933 s⁻¹; in data set [13], 86.7 s⁻¹.

B4: Alpha-1,2-mannosidase (BT_3990) (Bacteroides thetaiotaomicron), Q8A0N1 D642A (protein)
chain: B3 chain with D642A
In the case of B4, the Km entry in data set [14] is “Not Active”; in data set [15], 690 µM. In addition, the kcat entry in data set [14] was “Not Active”; in data set [15], 0.000533 s⁻¹. Further, the kcat/Km entry in data set [16] is “Not Active”; in [17] it was 0.783 M⁻¹ s⁻¹; in data set [18] it was 0.383 M⁻¹ s⁻¹.

By kcat/Km is commonly meant the turnover number divided by the Michaelis constant. The Km is the concentration of substrate that gives half-maximal velocity. For orientation: kcat means the maximal rate divided by the concentration of active sites.
